Source: paper doi:10.1101/2025.08.12.669934 (bioRxiv, 2025)

Experiments:
[1] = target: Vps13 F^2465A Y^2466A ^GFP (S. cerevisiae, UniProt Q07878 1-3144, F^2465A | Y^2466A); assay: co-IP
Vps13^GFP (wild type) = Vps13^GFP (wild type) (S. cerevisiae, UniProt Q07878 1-3144); assay: co-IP

percent recovery relative to WT [1] [%]	percent recovery relative to WT (Vps13^GFP (wild type)) [%]	Binder
24		Ypt35-3HA (natural protein, S. cerevisiae, UniProt P38815 1-214, looked up) MSDKISFLPPEPIQLLDEDSTEPELDIDSQQENEGPISASNSNDSTSHSNDCGATITRTRPRRSSSINANFSFQKAHVSDCTIVNGDHGTKFAVWRITVFLEPNLKAFAAKRESYKIQTYKRYSDFVRLRENLLTRIKTAKPEKLNCLQIPHLPPSVQWYSSWKYQEVNLNKDWLAKRQRGLEYFLNHIILNSSLVEMTKDILIQFLEPSKRVA
	19	Ypt35 P^10,12A -3HA (natural protein, S. cerevisiae, UniProt P38815 1-214, looked up) MSDKISFLPAEAIQLLDEDSTEPELDIDSQQENEGPISASNSNDSTSHSNDCGATITRTRPRRSSSINANFSFQKAHVSDCTIVNGDHGTKFAVWRITVFLEPNLKAFAAKRESYKIQTYKRYSDFVRLRENLLTRIKTAKPEKLNCLQIPHLPPSVQWYSSWKYQEVNLNKDWLAKRQRGLEYFLNHIILNSSLVEMTKDILIQFLEPSKRVA
